Experimental data reported in the supplement of paper PMC7877785.
± gives the uncertainty stated by the source.

Test: self-splicing fitness, log relative to wild type (ln ratio); higher = more splicing; Tetrahymena group I intron in knt gene, E. coli kanamycin selection, DiMSum; sequences stand for … in CUCUCU…GGAGGGAAAAGUUAUCAGGCAUGCACCUGGUAGCUAGUCUUUAAACCAAUAGAUUGCAUCGGUUUAAAAGGCAAGACCGUCAAAUUGCGGGAAAGGGGUCAACAGCCGUUCAGUACCAAGUCUCAGGGGAAACUUUGAGAUGGCCUUGCAAAGGGUAUGGUAAUAAGCUGACGGACAUGGUCCUAACCACGCAGCCAAGUCCUAAGUCAACAGAUCUUCUGUUGAUAUGGAUGCAGUUCACAGACUAAAUGUCGGUCGGGGAAGAUGUAUUCUUCUCAUAAGAUAUAGUCGGACCUCUCCUUAAUGGGAGCUAGCGGAUGAAGUGAUGCAACACUGGAGCCGCUGGGAACUAAUUUGUAUGCGAAAGUAUAUUGAUUAGUUUUGGAGUACUCGUGGUCG
In short: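 DiMSum derived fitness as the error-weighted combination of fold changes across replicates, kanamycin versus no kanamycin, normalised to wild type. E. coli BL21(DE3) held the library, which randomised all eight P1ex-region intron nucleotides within the knt kanamycin-resistance gene on pET-22b(+). Six replicate transformations grew overnight at 37°C or 30°C on LB agar with or without 25 μg/mL kanamycin, also containing 100 μg/mL carbenicillin, 50 μM IPTG and 0.2% rhamnose, and pooled colonies were amplicon-sequenced on an Illumina HiSeq 2500.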

Row | Sequence | self-splicing fitness (ln) (30 °C) | self-splicing fitness (ln) (37 °C)
1 | UACUAGCAAUAUUACGAGUA | -2.36 ± 0.18 | -1.77 ± 0.19
2 | UACAAGCAAUAUUACGCAAG | -2.81 ± 0.12 | -1.6 ± 0.11
3 | GCCGAGCAAUAUUACGUAUU | -3.72 ± 0.21 | -1.9 ± 0.15
4 | GUUCAGCAAUAUUACGUGUU | -1.84 ± 0.08 | 0.0147 ± 0.089
5 | CUCCAGCAAUAUUACGUCAG | -1.2 ± 0.067 | -0.906 ± 0.098
6 | CCUCAGCAAUAUUACGAGAU | -3.32 ± 0.18 | -3.16 ± 0.24
7 | GAACAGCAAUAUUACGUCUG | -2.54 ± 0.079 | -0.775 ± 0.077
8 | UGAUAGCAAUAUUACGGACC | -1.26 ± 0.26 | 
9 | GUUAAGCAAUAUUACGGCAA | 0.045 ± 0.2 | -0.394 ± 0.22
10 | GCAGAGCAAUAUUACGUUAU | -2.65 ± 0.46 | -2.44 ± 0.44
11 | GGCUAGCAAUAUUACGACGA | -1.31 ± 0.15 | -1.08 ± 0.17
12 | UUAAAGCAAUAUUACGUUGC | -3.24 ± 0.28 | -2.66 ± 0.3
13 | UAAGAGCAAUAUUACGUUUU | -3.31 ± 0.15 | -3.27 ± 0.2
14 | GCGUAGCAAUAUUACGCCUA | -1.76 ± 0.45 | -1.07 ± 0.35
15 | AGAAAGCAAUAUUACGAUAU | -1.07 ± 0.096 | -0.792 ± 0.11
16 | UUCAAGCAAUAUUACGACUC | -1.98 ± 0.24 | -0.791 ± 0.22
17 | CCUCAGCAAUAUUACGCCAC | -3.18 ± 0.36 | -2.12 ± 0.41
18 | AGUGAGCAAUAUUACGCCUC | -1.98 ± 0.24 | 
19 | CGUGAGCAAUAUUACGGAAU |  | -2.84 ± 0.38
20 | AGGAAGCAAUAUUACGCCAA | -1.65 ± 0.35 | -1.5 ± 0.31
21 | UAUAAGCAAUAUUACGUCUU | -1 ± 0.085 | -0.554 ± 0.1
22 | GAGGAGCAAUAUUACGUUUG | -3.33 ± 0.16 | -1.92 ± 0.13
23 | CCACAGCAAUAUUACGCGGC | -3.19 ± 0.24 | -3.09 ± 0.35
24 | UUGUAGCAAUAUUACGGAGA |  | -2.21 ± 0.42
25 | CAUCAGCAAUAUUACGAACA | -2.82 ± 0.25 | -1.85 ± 0.21

Row | Sequence | self-splicing fitness (ln) (30 °C) | self-splicing fitness (ln) (37 °C)
26 | UGUUAGCAAUAUUACGGUAA | -1.05 ± 0.1 | -0.0801 ± 0.097
27 | UAGUAGCAAUAUUACGAUAC | -2.73 ± 0.44 | 
28 | UGCCAGCAAUAUUACGAGCG | -0.919 ± 0.066 | -0.309 ± 0.079
29 | UCAAAGCAAUAUUACGUAUU | -3.03 ± 0.14 | -2.13 ± 0.17
30 | GGCGAGCAAUAUUACGAUAC | -2.02 ± 0.37 | -0.796 ± 0.35
31 | GGUUAGCAAUAUUACGCUCA | -1.34 ± 0.2 | -0.632 ± 0.19
32 | UGGUAGCAAUAUUACGGCCU | -0.807 ± 0.18 | -0.532 ± 0.39
33 | ACCGAGCAAUAUUACGGACA | -1.25 ± 0.15 | -0.523 ± 0.15
34 | CCGAAGCAAUAUUACGCCCU |  | -1.26 ± 0.46
35 | AUCCAGCAAUAUUACGCGAA | -0.821 ± 0.054 | -0.468 ± 0.07
36 | CAGAAGCAAUAUUACGGUAG | -0.817 ± 0.065 | -0.323 ± 0.08
37 | GAGAAGCAAUAUUACGCUAU | -2.79 ± 0.19 | -1.31 ± 0.16
38 | GACAAGCAAUAUUACGGACG | -1.75 ± 0.098 | -0.673 ± 0.12
39 | UCUAAGCAAUAUUACGGGCG | -1.54 ± 0.11 | -0.979 ± 0.095
40 | AGCGAGCAAUAUUACGGCGG | -1.1 ± 0.19 | -1.8 ± 0.24
41 | CGCGAGCAAUAUUACGGGAG | -3.66 ± 0.19 | -2.91 ± 0.22
42 | GCACAGCAAUAUUACGGCCG | -2.48 ± 0.17 | -1.75 ± 0.18
43 | AUACAGCAAUAUUACGUAUG | -2.42 ± 0.16 | -2.52 ± 0.18
44 | CAGAAGCAAUAUUACGUGUU | -4.1 ± 0.18 | -3.45 ± 0.16
45 | ACCUAGCAAUAUUACGUUUG | -2.6 ± 0.08 | -2.03 ± 0.11
46 | GAGUAGCAAUAUUACGAAUA | -2 ± 0.14 | -1.76 ± 0.14
47 | GGUGAGCAAUAUUACGCUUG | -3.71 ± 0.29 | -3.44 ± 0.33
48 | CUUAAGCAAUAUUACGGAAA | -3.23 ± 0.38 | -2.1 ± 0.28
49 | GAAUAGCAAUAUUACGUCGA | -0.367 ± 0.11 | -0.794 ± 0.12
50 | UUGAAGCAAUAUUACGAGAC | -3.37 ± 0.17 | -2.5 ± 0.19

Row | Sequence | self-splicing fitness (ln) (30 °C) | self-splicing fitness (ln) (37 °C)
51 | UACAAGCAAUAUUACGGAAC | -3.75 ± 0.27 | -2.28 ± 0.25
52 | AAUGAGCAAUAUUACGUCUA | -2.27 ± 0.24 | -1.59 ± 0.18
53 | ACAUAGCAAUAUUACGAAAU | -3.43 ± 0.19 | -2.75 ± 0.26
54 | AGAAAGCAAUAUUACGUGCA | -0.717 ± 0.079 | -0.292 ± 0.099
55 | CAUAAGCAAUAUUACGAAGG | -1.56 ± 0.11 | -1.55 ± 0.15
56 | AGACAGCAAUAUUACGGGAU | -1.22 ± 0.098 | -1.71 ± 0.14
57 | CAUCAGCAAUAUUACGUAUU | -2.15 ± 0.097 | -1.65 ± 0.11
58 | CUCCAGCAAUAUUACGAGGA | -2.35 ± 0.11 | -2.99 ± 0.18
59 | CAGUAGCAAUAUUACGUUCA | -0.986 ± 0.14 | -2.31 ± 0.23
60 | AAUUAGCAAUAUUACGCGCA | -0.118 ± 0.11 | 0.114 ± 0.15
61 | GACUAGCAAUAUUACGGCGA | -0.738 ± 0.079 | -0.303 ± 0.081
62 | AGAGAGCAAUAUUACGCAUU | -3.41 ± 0.18 | -2.35 ± 0.15
63 | GCAGAGCAAUAUUACGCGGG | -3.58 ± 0.39 | -2.24 ± 0.28
64 | GCUAAGCAAUAUUACGGUUA | -1.33 ± 0.1 | -1.49 ± 0.094
65 | GUCCAGCAAUAUUACGACCU | -2.17 ± 0.19 | -1.13 ± 0.2
66 | CCCCAGCAAUAUUACGAGUA | -2.91 ± 0.12 | -2.58 ± 0.14
67 | CAUAAGCAAUAUUACGCCAC | -2.8 ± 0.37 | -2.59 ± 0.39
68 | AGCGAGCAAUAUUACGGCAC | -1.57 ± 0.22 | -0.495 ± 0.3
69 | CCACAGCAAUAUUACGCCAA | -2.96 ± 0.2 | -2.1 ± 0.23
70 | GAACAGCAAUAUUACGUUUG | -2.2 ± 0.067 | -0.632 ± 0.075
71 | UAACAGCAAUAUUACGUGGA | -3.11 ± 0.14 | -1.44 ± 0.08
72 | UUUUAGCAAUAUUACGGUGA | -0.38 ± 0.15 | 0.0249 ± 0.14
73 | UUUUAGCAAUAUUACGUCCU |  | 0.494 ± 0.32
74 | CAAAAGCAAUAUUACGUCCG | -0.119 ± 0.082 | 0.175 ± 0.1
75 | AUCCAGCAAUAUUACGAGGC | -1.97 ± 0.16 | -1.41 ± 0.23

Row | Sequence | self-splicing fitness (ln) (30 °C) | self-splicing fitness (ln) (37 °C)
76 | CGCAAGCAAUAUUACGAAGC | -2.55 ± 0.13 | -3.1 ± 0.19
77 | AGGCAGCAAUAUUACGACAU | -0.21 ± 0.012 | -0.101 ± 0.032
78 | UCAAAGCAAUAUUACGUGCC | -2.35 ± 0.18 | -1.57 ± 0.39
79 | GCUCAGCAAUAUUACGAAGC | -2.75 ± 0.12 | -2.33 ± 0.15
80 | GACUAGCAAUAUUACGAAGC | -2.18 ± 0.18 | -1.55 ± 0.18
81 | CGGAAGCAAUAUUACGGCGU | -1.96 ± 0.16 | -1.04 ± 0.22
82 | UAGUAGCAAUAUUACGAACG | -0.961 ± 0.13 | -0.0932 ± 0.15
83 | GUGAAGCAAUAUUACGCGAC | -0.927 ± 0.21 | -0.922 ± 0.26
84 | CCCUAGCAAUAUUACGUGCC | -3.52 ± 0.22 | -2.2 ± 0.24
85 | GCAGAGCAAUAUUACGGAAC |  | -0.993 ± 0.17
86 | CACAAGCAAUAUUACGACGA | -0.927 ± 0.11 | -0.995 ± 0.12
87 | AUGAAGCAAUAUUACGAGCC | -3.01 ± 0.38 | -3.27 ± 0.38
88 | CGGAAGCAAUAUUACGGGGU | -2.39 ± 0.27 | -3.41 ± 0.43
89 | AUCCAGCAAUAUUACGCGCG | -2 ± 0.074 | -0.8 ± 0.1
90 | GAAAAGCAAUAUUACGUCCA | -0.703 ± 0.064 | 0.0901 ± 0.089
91 | CAUUAGCAAUAUUACGUCCU | -3.14 ± 0.18 | -1.38 ± 0.15
92 | CAAUAGCAAUAUUACGCUCU | -3.28 ± 0.24 | -1.88 ± 0.17
93 | ACAGAGCAAUAUUACGGAUC | -3.24 ± 0.4 | -1.85 ± 0.26
94 | AAGCAGCAAUAUUACGGGAG | -3.74 ± 0.16 | -3.05 ± 0.23
95 | ACCGAGCAAUAUUACGUAGA | -4.48 ± 0.29 | -2.69 ± 0.18
96 | CUCAAGCAAUAUUACGAAGU | -3.75 ± 0.2 | -2.36 ± 0.21
97 | CACGAGCAAUAUUACGCUCG | -4.11 ± 0.39 | -1.3 ± 0.22
